These results are taken from publication PMC5425828.

This series deals with T1, Sco1678 (GntR-His) (Streptomyces coelicolor M145) (UniProt Q9AD89).
T1 sequence: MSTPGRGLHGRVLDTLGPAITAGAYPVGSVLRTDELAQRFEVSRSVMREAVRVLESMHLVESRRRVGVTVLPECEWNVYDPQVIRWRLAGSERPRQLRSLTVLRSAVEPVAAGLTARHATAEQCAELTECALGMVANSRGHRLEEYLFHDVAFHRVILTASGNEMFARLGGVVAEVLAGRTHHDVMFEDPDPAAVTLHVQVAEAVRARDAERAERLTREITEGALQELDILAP
Description: EMSA. Particulars: 20 mM Tris/HCl pH 7.5, 50 mM KCl, 10 mM MgCl2, 5% (v/v) glycerol, 0.5 mM EDTA, 25 min at 25 C; 0.2 pmol Cy5 probe, 0.93-4.18 pmol protein; 8% native PAGE, 1x ….

With “AGCCAGTGGCGATAAGCGTCGTACTCCTGTTCCTGCCGGCCGGTGCGTGGTGCGGCTATATGACCAGGGACAACAGCAGGACCAGGGCACCGGCGACCACCGAGATGATCGTCTCCATGACGGACCAGGTCTTGATGGTCTGCCCCACGTTCAGCCCGAAGTACTCCTTCACCAGCCAGCTTATCGCCACTGGCT (double strand) [gntZ promoter region]”, the binding entry is reported as “no binding”.

As for “AGCCAGTGGCGATAAGGTTGCTGCATCGCACTCTCGCTGTCTGCTGTCTTCGTCGACACCTGATGTCGACGCAACTGAAACTCATTAGTACGACAACTTCAAGAGTCTGTGACGTATAAGTCTGACTTTTTGTTCCCGTGACATGCCCCGTACGCTGAGTGCATGAGCACACCGGGCCGGGGGCTGCACGGCCGCGTACTGGACACCCTCGGCCCCGCGATCACAGCTTATCGCCACTGGCT (double strand) [gntR-gntK intergeneric region]”, the binding result was “binds”.
